Measurements reported in patent publication US20250101107A1 (REPERTOIRE IMMUNE MEDICINES, published 2025).

B1: 02-Parent-VH-M39L (antibody, V domains shown)
VH: EVQLQQSGPELVKPGASLKISCKASGYTFTDFTLHWVKQSHGKSLEWIGLVNPNNGGNIYNQNFKGKATLTVDTSSSTAYMELRSLTSEDSSVYYCGRVPLYTSHGMDYWGQGTSVTVSS
VL: DIVLTQSPAFLAVSLGQRATISCRASESVDSYDINSMHWYQQKPGQPPKLLIYRASHLQSGIPARFSGSGSRTDFTLTINFVEADDVATYYCQQSNEDPLTFGAGTKLELK
notes: also called murine 02A01 VH-M39L
B2: humanized 02A01-VH2-VK2 (antibody, V domains shown)
VH: EVQLVQSGAEVKKPGATLKISCKASGYTFTDFTMHWVQQAPGKGLEWIGLVNPNNGGNIYNQNFKGRATLTVDTSTSTAYMELSSLRSEDTSVYYCGRVPLYTSHGMDYWGQGTLVTVSS
VL: EIVLTQSPATLSVSPGERATISCRASESVDSYDINSMHWYQQKPGQAPRLLIYRASHLQSGIPARFSGSGSRTDFTLTISSVEPEDFATYYCQQSNEDPLTFGQGTKLEIK
B3: humanized 02A01-VH3-VK2 (antibody, V domains shown)
VH: EVQLVQSGAEVKKPGATLKISCKASGYTFTDFTMHWVQQAPGKGLEWIGLVNPNNGGNIYAEKFQGRATLTVDTSTSTAYMELSSLRSEDTSVYYCGRVPLYTSHGMDYWGQGTLVTVSS
VL: EIVLTQSPATLSVSPGERATISCRASESVDSYDINSMHWYQQKPGQAPRLLIYRASHLQSGIPARFSGSGSRTDFTLTISSVEPEDFATYYCQQSNEDPLTFGQGTKLEIK
B4: humanized 02A01-VH2-VK1 (antibody, V domains shown)
VH: EVQLVQSGAEVKKPGATLKISCKASGYTFTDFTMHWVQQAPGKGLEWIGLVNPNNGGNIYNQNFKGRATLTVDTSTSTAYMELSSLRSEDTSVYYCGRVPLYTSHGMDYWGQGTLVTVSS
VL: EIVLTQSPATLSVSPGERATISCRASESVDSYDINSMHWYQQKPGQPPRLLIYRASHLQSGIPARFSGSGSRTDFTLTISSVEPEDFATYYCQQSNEDPLTFGQGTKLEIK
B5: humanized 02A01-VH1-VK2 (antibody, V domains shown)
VH: EVQLVQSGPEVVKPGATLKISCKASGYTFTDFTMHWVKQAPGKSLEWIGLVNPNNGGNIYNQNFKGRATLTVDTSTSTAYMELSSLRSEDTSVYYCGRVPLYTSHGMDYWGQGTLVTVSS
VL: EIVLTQSPATLSVSPGERATISCRASESVDSYDINSMHWYQQKPGQAPRLLIYRASHLQSGIPARFSGSGSRTDFTLTISSVEPEDFATYYCQQSNEDPLTFGQGTKLEIK
B6: humanized 02A01-VH3-VK1 (antibody, V domains shown)
VH: EVQLVQSGAEVKKPGATLKISCKASGYTFTDFTMHWVQQAPGKGLEWIGLVNPNNGGNIYAEKFQGRATLTVDTSTSTAYMELSSLRSEDTSVYYCGRVPLYTSHGMDYWGQGTLVTVSS
VL: EIVLTQSPATLSVSPGERATISCRASESVDSYDINSMHWYQQKPGQPPRLLIYRASHLQSGIPARFSGSGSRTDFTLTISSVEPEDFATYYCQQSNEDPLTFGQGTKLEIK
B7: humanized 02A01-VH1-VK3 (antibody, V domains shown)
VH: EVQLVQSGPEVVKPGATLKISCKASGYTFTDFTMHWVKQAPGKSLEWIGLVNPNNGGNIYNQNFKGRATLTVDTSTSTAYMELSSLRSEDTSVYYCGRVPLYTSHGMDYWGQGTLVTVSS
VL: EIVLTQSPATLSLSPGERATISCRASESVDSYDINSMHWYQQKPGQAPRLLIYRASHLQSGIPARFSGSGSRTDFTLTISSLEPEDFATYYCQQSNEDPLTFGQGTKLEIK
B8: humanized 02A01-VH1-VK1 (antibody, V domains shown)
VH: EVQLVQSGPEVVKPGATLKISCKASGYTFTDFTMHWVKQAPGKSLEWIGLVNPNNGGNIYNQNFKGRATLTVDTSTSTAYMELSSLRSEDTSVYYCGRVPLYTSHGMDYWGQGTLVTVSS
VL: EIVLTQSPATLSVSPGERATISCRASESVDSYDINSMHWYQQKPGQPPRLLIYRASHLQSGIPARFSGSGSRTDFTLTISSVEPEDFATYYCQQSNEDPLTFGQGTKLEIK
B9: humanized 03A01-VH1-VK1 (antibody, V domains shown)
VH: EVQFQESGPGLVKPSQTLSLTCTVTGYSITSDFAWNWIRQPPGKELEWMGYISYSGDTNYNPSLRSRITISRDTSKNQFSLKLSSVTAADTATYYCTIRGYYTDSAFVFWGQGTLVTVSS
VL: DIQMTQSSSTLSVSLGDRVTITCKASDHINNWLAWYQQKPGKAPRLLISGATSLETGVPSRFSGSGSGLEYTLTISSLQPDDFATYYCQQYWNSPFTFGQGTKLEIK
B10: humanized 03A01-VH4-VK1 (antibody, V domains shown)
VH: EVQFQESGPGLVKPSQTLSLTCTVSGYSITSDFAWNWIRQPPGKGLEWIGYISYSGDTYYNPSLKSRVTISRDTSKNQFSLKLSSVTAADTAVYYCTIRGYYTDSAFVFWGQGTLVTVSS
VL: DIQMTQSSSTLSVSLGDRVTITCKASDHINNWLAWYQQKPGKAPRLLISGATSLETGVPSRFSGSGSGLEYTLTISSLQPDDFATYYCQQYWNSPFTFGQGTKLEIK
B11: humanized 03A01-VH4-VK2 (antibody, V domains shown)
VH: EVQFQESGPGLVKPSQTLSLTCTVSGYSITSDFAWNWIRQPPGKGLEWIGYISYSGDTYYNPSLKSRVTISRDTSKNQFSLKLSSVTAADTAVYYCTIRGYYTDSAFVFWGQGTLVTVSS
VL: DIQMTQSPSTLSVSVGDRVTITCKASDHINNWLAWYQQKPGKAPKLLISGATSLETGVPSRFSGSGSGLEYTLTISSLQPDDFATYYCQQYWNSPFTFGQGTKLEIK
B12: humanized 03A01-VH2-VK1 (antibody, V domains shown)
VH: EVQFQESGPGLVKPSQTLSLTCTVSGYSITSDFAWNWIRQPPGKGLEWMGYISYSGDTNYNPSLRSRITISRDTSKNQFSLKLSSVTAADTAVYYCTIRGYYTDSAFVFWGQGTLVTVSS
VL: DIQMTQSSSTLSVSLGDRVTITCKASDHINNWLAWYQQKPGKAPRLLISGATSLETGVPSRFSGSGSGLEYTLTISSLQPDDFATYYCQQYWNSPFTFGQGTKLEIK
B13: humanized 03A01-VH4-VK3 (antibody, V domains shown)
VH: EVQFQESGPGLVKPSQTLSLTCTVSGYSITSDFAWNWIRQPPGKGLEWIGYISYSGDTYYNPSLKSRVTISRDTSKNQFSLKLSSVTAADTAVYYCTIRGYYTDSAFVFWGQGTLVTVSS
VL: DIQMTQSPSTLSASVGDRVTITCKASDHINNWLAWYQQKPGKAPKLLISGATSLETGVPSRFSGSGSGLEYTLTISSLQPDDFATYYCQQYWNSPFTFGQGTKLEIK
B14: 03-Parent-VH-D64E (antibody, V domains shown)
VH: DVQFQESGPGLVKPSQSLSLTCTVTGYSITSDFAWNWIRQFPGNELEWMGYISYSGETNYNPSLRSRISITRDTSKNQFFLQLDSVTTEDTATYYCTIRGYYTDSAFVFWGQGTLVTVSA
VL: DIQMTQSSSYLSVSLGGRVTITCKASDHINNWLAWYQQKPGNAPRLLISGATSLETGVPSRFTGSGSGLDYTLSITSLQTEDVATYYCQQYWNSPFTFGSGTKLEIK
notes: also called 03A01 VH-D64E
B15: 02A01-IgG-IL12 (LC) (other, not shown: a dimerising Fc or GST)
heavy: EVQLQQSGPELVKPGASLKISCKASGYTFTDFTMHWVKQSHGKSLEWIGLVNPNNGGNIYNQNFKGKATLTVDTSSSTAYMELRSLTSEDSSVYYCGRVPLYTSHGMDYWGQGTSVTVSS
light: DIVLTQSPAFLAVSLGQRATISCRASESVDSYDINSMHWYQQKPGQPPKLLIYRASHLQSGIPARFSGSGSRTDFTLTINFVEADDVATYYCQQSNEDPLTFGAGTKLELK
B16: 03A01-IgG-IL12 (LC) (other, not shown: a dimerising Fc or GST)
heavy: DVQFQESGPGLVKPSQSLSLTCTVTGYSITSDFAWNWIRQFPGNELEWMGYISYSGDTNYNPSLRSRISITRDTSKNQFFLQLDSVTTEDTATYYCTIRGYYTDSAFVFWGQGTLVTVSA
light: DIQMTQSSSYLSVSLGGRVTITCKASDHINNWLAWYQQKPGNAPRLLISGATSLETGVPSRFTGSGSGLDYTLSITSLQTEDVATYYCQQYWNSPFTFGSGTKLEIK

target: T1, human CD8 on human T cells (human, UniProt P01732 22-235; P10966 22-210); test: flow cytometry, 0.2 nM antibody on human CD8+ T cells, anti-human IgG detection (MFI AF647)
T1 construct: whole, on cells; Target as carried by human CD3+/CD8+ T cells, PBMCs or MART-1-specific T cells; the mice were immunized with human CD8a; also called hCD8; CD8 expressed on the cell surface
T1 sequence (P01732 22-235, chain 1 of 2): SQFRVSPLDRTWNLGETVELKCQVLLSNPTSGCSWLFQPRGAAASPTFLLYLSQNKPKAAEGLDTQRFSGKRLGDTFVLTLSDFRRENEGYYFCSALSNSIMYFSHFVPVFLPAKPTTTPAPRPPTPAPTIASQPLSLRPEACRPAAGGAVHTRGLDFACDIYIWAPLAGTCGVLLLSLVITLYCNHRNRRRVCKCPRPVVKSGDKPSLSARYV
T1 sequence (P10966 22-210, chain 2 of 2): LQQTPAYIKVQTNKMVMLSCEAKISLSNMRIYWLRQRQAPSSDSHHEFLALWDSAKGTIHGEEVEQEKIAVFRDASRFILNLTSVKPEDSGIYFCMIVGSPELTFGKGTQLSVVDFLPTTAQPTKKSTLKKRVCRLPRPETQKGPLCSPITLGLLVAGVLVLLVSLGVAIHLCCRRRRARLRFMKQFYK
Method: The 24 humanized 02A01-derived anti-CD8 antibodies (excluding 02A01-VK3(D30E/N35Q)) were screened for their ability to bind human CD8 by evaluating binding to CD8+ T cells. The non-humanized parent (“02-Parent”) and the non-humanized parent comprising a heavy chain M39L liability mutation (“02-Parent-VH-M39L”) were used as controls. […] Cells were washed with 1×phosphate buffered saline (PBS) containing 1 mg/mL bovine serum albumin (PBS/BSA) and then stained with a 1:100 dilution of DyLight650-conjugated anti-human IgG H+L polyclonal antibody (ThermoFisher cat. no. Sa5-10129) in PBS/BSA. Following a 20-30 min incubation at 4° C., the cells were washed once with PBS/BSA, and then resuspended in PBS/BSA for analysis on a FACSCelesta using Diva software (BD Biosciences). The resulting data were analyzed using FlowJo. Data were quantified and reported as Max fluorescence intensity (MFI) of human IgG-Fc. […] Complete replacement of the HCDR1 (antibodies comprising VH5) eliminated binding to the CD8+ T cells.

Row | Binder | binding result
1 | B1 | binds
2 | B2 | binds
3 | B3 | binds
4 | B4 | binds
5 | B5 | binds
6 | B6 | binds
7 | B7 | binds
8 | B8 | binds

target: T1, human CD8 on human T cells; test: flow cytometry, 5 nM antibody on human CD8+ T cells, anti-human IgG detection (MFI AF647)
Method: The 16 above-referenced humanized 03A01-derived anti-CD8 antibodies were screened for their ability to bind human CD8 by evaluating binding to CD8⁺ T cells. The non-humanized parent (“03-Parent”) and the non-humanized parent comprising a heavy chain D64E liability mutation (“03-Parent-VH-D64E”) were used as controls. […] Cells were washed with 1 X phosphate buffered saline (PBS) containing 1 mg/mL bovine serum albumin (PBS/BSA) and then stained with a 1:100 dilution of DyLight650-conjugated anti-human IgG H+L polyclonal antibody (ThermoFisher cat. no. Sa5-10129) in PBS/BSA. Following a 20-30 min incubation at 4° C., the cells were washed once with PBS/BSA, and then resuspended in PBS/BSA for analysis on a FACSCelesta using Diva software (BD Biosciences). The resulting data were analyzed using FlowJo. Data were quantified and reported as Max fluorescence intensity (MFI) of human IgG-Fc. […] Complete replacement of the LCDR1 (antibodies comprising VK4) eliminated binding to the CD8+ T cells.

Row | Binder | binding result
9 | B9 | binds
10 | B10 | binds
11 | B11 | binds
12 | B12 | binds
13 | B13 | binds
14 | B14 | binds

target: T1, human CD8 on human T cells; test: cell-based or functional assay

Row | Binder | EC50 for stimulation of pSTAT4 signaling, CD8+ T cells in pre-activated human PBMCs
15 | B15 | 2.72 pM
16 | B16 | 14.7 pM
